Assay results taken from patent US20050059588A1, “Peptides which generate antibodies resulting in lysis of pathologically adherent erythrocytes” (REGENTS OF THE UNIVERSITY OF CALIFORNIA, priority 2003, published 2005).

Assays:
[1] = molecular target: Partially purified CD36 (CD36 fraction) from human platelets, immobilized (human) (UniProt P16671); assay: cytoadherence assay, IEs on immobilized CD36, mean and SD of triplicates
[2] = molecular target: thrombospondin (TSP), immobilized (UniProt P07996); assay: cytoadherence assay, IEs on immobilized TSP, mean and SD of triplicates
thrombospondin (TSP), immobilized, sequence (P07996 19-1170 limits assumed): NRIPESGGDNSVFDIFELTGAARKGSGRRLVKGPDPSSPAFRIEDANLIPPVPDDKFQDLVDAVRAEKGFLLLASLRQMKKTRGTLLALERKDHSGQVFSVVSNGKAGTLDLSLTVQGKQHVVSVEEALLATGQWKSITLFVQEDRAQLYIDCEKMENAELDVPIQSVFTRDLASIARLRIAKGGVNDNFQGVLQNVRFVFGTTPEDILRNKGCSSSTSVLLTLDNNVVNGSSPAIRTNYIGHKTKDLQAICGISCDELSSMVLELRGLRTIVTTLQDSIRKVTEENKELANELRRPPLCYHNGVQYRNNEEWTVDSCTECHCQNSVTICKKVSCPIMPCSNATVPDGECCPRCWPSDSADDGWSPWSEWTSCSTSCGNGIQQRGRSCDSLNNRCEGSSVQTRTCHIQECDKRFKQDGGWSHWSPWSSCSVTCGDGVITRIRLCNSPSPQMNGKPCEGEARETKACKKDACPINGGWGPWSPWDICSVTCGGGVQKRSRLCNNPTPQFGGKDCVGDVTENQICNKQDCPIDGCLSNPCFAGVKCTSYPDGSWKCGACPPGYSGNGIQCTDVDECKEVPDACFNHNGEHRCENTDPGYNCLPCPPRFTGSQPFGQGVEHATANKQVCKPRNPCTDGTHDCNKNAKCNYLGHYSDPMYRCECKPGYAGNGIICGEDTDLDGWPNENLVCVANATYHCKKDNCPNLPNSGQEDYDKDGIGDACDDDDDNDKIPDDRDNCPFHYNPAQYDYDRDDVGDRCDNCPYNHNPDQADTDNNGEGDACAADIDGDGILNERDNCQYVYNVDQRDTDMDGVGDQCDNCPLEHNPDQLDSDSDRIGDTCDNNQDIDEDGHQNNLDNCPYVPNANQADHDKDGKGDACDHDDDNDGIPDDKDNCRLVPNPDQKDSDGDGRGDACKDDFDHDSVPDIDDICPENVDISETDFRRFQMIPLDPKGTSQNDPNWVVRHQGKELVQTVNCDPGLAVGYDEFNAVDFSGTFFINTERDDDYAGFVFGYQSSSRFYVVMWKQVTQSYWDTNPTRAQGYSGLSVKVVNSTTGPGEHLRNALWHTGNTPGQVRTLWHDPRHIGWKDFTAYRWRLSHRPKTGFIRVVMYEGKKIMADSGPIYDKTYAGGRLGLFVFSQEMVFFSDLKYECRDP

Partially purified CD36 (CD36 fraction) from human platelets, immobilized (human), sequence (P16671 2-472 limits assumed, form in doubt): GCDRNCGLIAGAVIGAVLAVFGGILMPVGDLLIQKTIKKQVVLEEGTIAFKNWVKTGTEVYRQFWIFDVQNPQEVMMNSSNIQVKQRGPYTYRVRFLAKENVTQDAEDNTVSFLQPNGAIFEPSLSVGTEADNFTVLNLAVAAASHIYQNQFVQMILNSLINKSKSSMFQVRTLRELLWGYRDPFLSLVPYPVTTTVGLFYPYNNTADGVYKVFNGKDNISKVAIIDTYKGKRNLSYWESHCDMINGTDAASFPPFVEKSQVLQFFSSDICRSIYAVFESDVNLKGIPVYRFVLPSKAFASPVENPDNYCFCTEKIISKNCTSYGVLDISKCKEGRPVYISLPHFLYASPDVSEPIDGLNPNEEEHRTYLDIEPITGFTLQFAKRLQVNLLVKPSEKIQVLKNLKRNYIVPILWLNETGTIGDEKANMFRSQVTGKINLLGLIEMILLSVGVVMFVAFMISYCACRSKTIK

Substance: Chymotrypsin cleaved AE1 on infected erythrocytes (from UniProt P02730 1-911)
- percentage of bound IEs/mm^2 as compared to untreated cells [1]: 10.2%
- percentage of bound IEs/mm^2 as compared to untreated cells [2]: 81%
